From publication PMC8693972 (Molecular Biology of the Cell, 2021)

Biological target: T1, fluorescently labeled Qc-SNARE Vam7 (yeast, UniProt P32912 1-316, labeled with a fluorophore distinct from that of Qb)
T1 sequence: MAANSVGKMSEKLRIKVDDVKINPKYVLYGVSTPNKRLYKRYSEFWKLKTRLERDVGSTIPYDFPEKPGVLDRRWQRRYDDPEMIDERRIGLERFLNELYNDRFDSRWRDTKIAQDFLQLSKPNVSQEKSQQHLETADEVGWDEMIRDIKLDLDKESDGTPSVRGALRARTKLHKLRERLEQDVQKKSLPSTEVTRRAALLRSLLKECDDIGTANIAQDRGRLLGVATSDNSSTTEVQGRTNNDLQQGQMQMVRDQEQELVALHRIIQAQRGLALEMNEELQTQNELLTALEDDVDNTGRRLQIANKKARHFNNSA
Assay: FRET or BRET

B1: fluorescent Qb-SNARE domain (cysteine-tagged synthetic SNARE domain of the Qb-SNARE Vti1) (domain or fragment)
chain: HAILQKSGDRLKDASRIANETEGIGSQIMMDLRSQRETLENARQTLFQADSYVDKSIKTLKTM
modifications: also: cysteine tag with fluorophore (Alexa-568), tag not in given chain
fold faster FRET with sQa than without sQa: 100 fold
